Source: US7449185 (Daiichi Sankyo, dated 2008)

How the values were obtained:
[1] = target: T1, OCIF, monomer type (60 kDa) (human, UniProt O00300 22-401, limits assumed, 125I on tyrosine residues (Iodogen method)); assay: Scatchard plot of 125I-OCIF binding to ST2 cells (passage about 10) cultured with vitamin D3 and dexamethasone
T1 construct: Monomer type of rOCIF, 60 kDa; also called monomer-form OCIF
T1 sequence (looked up): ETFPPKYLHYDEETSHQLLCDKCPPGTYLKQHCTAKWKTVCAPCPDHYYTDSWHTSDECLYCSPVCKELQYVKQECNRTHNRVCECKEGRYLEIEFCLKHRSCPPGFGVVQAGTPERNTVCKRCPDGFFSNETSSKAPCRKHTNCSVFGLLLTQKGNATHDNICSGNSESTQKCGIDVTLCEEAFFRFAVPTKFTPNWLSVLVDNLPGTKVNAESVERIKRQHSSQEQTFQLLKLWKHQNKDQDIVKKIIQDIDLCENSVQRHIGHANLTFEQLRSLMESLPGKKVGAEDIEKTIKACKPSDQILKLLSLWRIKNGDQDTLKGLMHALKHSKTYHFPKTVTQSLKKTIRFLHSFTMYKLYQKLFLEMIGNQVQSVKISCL
Method: Solutions for measuring non-specific binding were prepared by further adding 400-fold concentration of monomer-form OCIF to these solutions. […] The results were subjected to Scatchard Plot analysis to determine the dissociation constant of OCIF and OCIF-binding protein and the number (site) of OCIF-binding protein per a ST2 cell. […] Based on the finding in Example 5(1) that osteoclasts-formation supported by the ST2 cells with passage number about 40 was more extensive than that with passage number about 10, the number (the site) of the protein of the present invention expressed on the ST2 cell with a passage number about 40 was assessed.

[2] = target: T2, osteoclastogenesis inhibitory factor (OCIF), recombinant, monomer or dimer type not specified at the place of … (human, UniProt O00300 22-401, 125I on tyrosine residues where used as 125I-labeled OCIF (Iodogen method)); assay: Scatchard plot of labeled OCIF on cell membrane (told in the general description)
T2 construct: Secreted protein, about 60 kDa as monomer and 120 kDa as dimer; also called recombinant OCIF
T2 sequence (looked up): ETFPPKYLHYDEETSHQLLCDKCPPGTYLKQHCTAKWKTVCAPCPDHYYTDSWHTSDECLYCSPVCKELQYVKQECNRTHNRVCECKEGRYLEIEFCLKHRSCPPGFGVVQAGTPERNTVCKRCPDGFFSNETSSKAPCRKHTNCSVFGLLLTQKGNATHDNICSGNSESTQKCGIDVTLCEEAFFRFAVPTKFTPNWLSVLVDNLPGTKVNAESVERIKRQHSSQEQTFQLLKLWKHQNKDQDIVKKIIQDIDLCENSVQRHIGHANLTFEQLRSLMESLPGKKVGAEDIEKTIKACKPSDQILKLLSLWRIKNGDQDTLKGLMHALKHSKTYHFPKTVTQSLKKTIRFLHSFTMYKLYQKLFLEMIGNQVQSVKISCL

Kd [1]: 280 pM
B1: natural OCIF-binding protein (mouse OBM) on mouse osteoblastic stromal ST2 cells cultured with active-form vitamin D3 and dexamethasone (ligand)
chain: MRRASRDYGKYLRSSEEMGSGPGVPHEGPLHPAPSAPAPAPPPAASRSMFLALLGLGLGQVVCSIALFLYFRAQMDPNRISEDSTHCFYRILRLHENAGLQDSTLESEDTLPDSCRRMKQAFQGAVQKELQHIVGPQRFSGAPAMMEGSWLDVAQRGKPEAQPFAHLTINAASIPSGSHKVTLSSWYHDRGWAKISNMTLSNGKLRVNQDGFYYLYANICFRHHETSGSVPTDYLQLMVYVVKTSIKIPSSHNLMKGGSTKNWSGNSEFHFYSINVGGFFKLRAGEEISIQVSNPSLLDPDQDATYFGAFKVQDID
notes: also called the protein of the present invention; OBM on ST2 cells
Kd [2]: 100 to 500 pM
